Patent US20070077239

Molecular target: bovine serum albumin, P02769
Sequence (P02769 25-607): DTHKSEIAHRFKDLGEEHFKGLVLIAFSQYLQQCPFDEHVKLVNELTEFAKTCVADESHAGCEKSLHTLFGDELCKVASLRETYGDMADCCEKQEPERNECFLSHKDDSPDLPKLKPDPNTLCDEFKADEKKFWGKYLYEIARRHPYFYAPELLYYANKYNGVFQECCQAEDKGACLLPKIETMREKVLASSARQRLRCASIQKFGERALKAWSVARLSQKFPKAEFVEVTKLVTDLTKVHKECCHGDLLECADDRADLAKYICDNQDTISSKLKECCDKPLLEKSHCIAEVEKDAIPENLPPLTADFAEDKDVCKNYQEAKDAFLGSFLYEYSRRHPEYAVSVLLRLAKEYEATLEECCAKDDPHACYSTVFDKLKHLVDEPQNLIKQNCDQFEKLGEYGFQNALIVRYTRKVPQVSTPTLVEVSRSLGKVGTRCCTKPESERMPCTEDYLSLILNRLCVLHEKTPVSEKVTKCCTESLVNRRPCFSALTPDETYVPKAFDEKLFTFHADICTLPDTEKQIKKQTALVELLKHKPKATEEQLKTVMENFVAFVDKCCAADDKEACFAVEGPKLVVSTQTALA

B1: MPO purified from human PMNs (protein)
chain 1: not shown
chain 2: VNCETSCVQQPPCFPLKIPPNDPRIKNQADCIPFFRSCPACPGSNITIRNQINALTSFVDASMVYGSEEPLARNLRNMSNQLGLLAVNQRFQDNGRALLPFDNLHDDPCLLTNRSARIPCFLAGDTRSSEMPELTSMHTLLLREHNRLATELKSLNPRWDGERLYQEARKIVGAMVQIITYRDYLPLVLGPTAMRKYLPTYRSYNDSVDPRIANVFTNAFRYGHTLIQPFMFRLDNRYQPMEPNPRVPLSRVFFASWRVVLEGGIDPILRGLMATPAKLNRQNQIAVDEIRERLFEQVMRIGLDLPALNMQRSRDHGLPGYNAWRRFCGLPQPETVGQLGTVLRNLKLARKLMEQYGTPNNIDIWMGGVSEPLKRKGRVGPLLACIIGTQFRKLRDGDRFWWENEGVFSMQQRQALAQISLPRIICDNTGITTVSKNNIFMSNSYPRDFVNCSTLPALNLASWREAS
B1 was tested, and the “endocytosis of MPO in BLMVEC (confocal microscopy)” value was “in the presence of albumin, MPO staining was markedly co-localized with albumin-containing vesicles” and the “transendothelial 125I-MPO permeability (BLMVEC on Transwell filters)” value was “increased more than 2-fold in the presence of albumin, as compared to γ-globulin”.
